This note sets out measurements from patent US20250145729A1 (DENALI THERAPEUTICS, published 2025).

Positions count from the first letter of the chain named. Names and notes keep the numbering of the source.

T1: human CD98hc (human, UniProt P08195 109-529)
T1 construct: also called huCD98hc; CD98 heavy chain
T1 sequence: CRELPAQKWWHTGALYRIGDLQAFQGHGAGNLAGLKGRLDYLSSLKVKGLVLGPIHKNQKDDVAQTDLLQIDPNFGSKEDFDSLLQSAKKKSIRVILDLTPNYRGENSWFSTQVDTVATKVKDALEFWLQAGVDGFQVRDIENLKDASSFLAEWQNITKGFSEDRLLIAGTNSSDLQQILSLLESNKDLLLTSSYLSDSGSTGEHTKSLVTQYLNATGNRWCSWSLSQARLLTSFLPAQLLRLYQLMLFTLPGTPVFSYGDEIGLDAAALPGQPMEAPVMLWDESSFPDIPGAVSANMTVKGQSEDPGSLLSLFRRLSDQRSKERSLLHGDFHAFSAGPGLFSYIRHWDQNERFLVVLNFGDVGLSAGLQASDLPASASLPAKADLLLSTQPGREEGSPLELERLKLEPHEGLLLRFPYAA

T2: human CD98hc (human, UniProt P08195 109-529)
T2 construct: The construct used on the Biacore is not described; also called CD98 heavy chain; 4F2 heavy chain
T2 sequence: T1 sequence

T3: circularly permuted cyno TfR apical domain (cynomolgus monkey)
T3 construct: same design as the human construct; also called cyTfR Apical Domain; cynomolgus TfR apical domain
T3 chain: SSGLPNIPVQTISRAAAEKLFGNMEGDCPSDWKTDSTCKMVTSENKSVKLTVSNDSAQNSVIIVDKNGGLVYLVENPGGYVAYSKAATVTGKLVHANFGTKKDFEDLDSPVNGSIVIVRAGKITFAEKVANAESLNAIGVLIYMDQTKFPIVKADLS

T4: circularly permuted human TfR apical domain (human)
T4 construct: TfR residues 326-379 stand N-terminal to 194-296, loop 297-325 deleted; also called huTfR Apical Domain
T4 chain: T3 chain with K39R, N45S, S47N, G69R, D108Y, S109T, K153N, D155E

T5: human CD98hc (human, UniProt P08195 109-529)
T5 construct: also called huCD98hc; CD98 heavy chain
T5 sequence: T1 sequence

B1: Clone 33: LLB2-10-8-d6 bivalent, non-binding Fabs (Fc fusion)
chain: APELLGGPSVFLFPPKPKDTLMISRTPEVTCVVVDVSHEDPEVKFNWYVDGVEVHNAKTKPREEQYNSTYRVVSVLTVLHQDWLNGKEYKCKVSNKALPAPIEKTISKAKGQPREPQVYTLPPSRDELTKNQVSLTCLVKGFYPSDIAVLWNSRFVLENNYKTTPPVLDSDGSFFLYSKLTVDKSRWQQGNVFACNVYHEALHNHYTFKNLALSPGK
notes: bivalent; effector positive
B2: Clone 36: LLB2-10-8 bivalent, non-binding Fabs, effector negative (Fc fusion)
chain: B1 chain with L4A, L5A, P99G, N191E, V192I
B3: Clone 38: LLB2-10-8-d6 bivalent, non-binding Fabs, effector negative (Fc fusion)
chain: B1 chain with L4A, L5A, P99G
B4: LLB1-3-16-2 (Fc fusion)
chain: APELLGGPSVFLFPPKPKDTLMISRTPEVTCVVVDVSHEDPEVKFNWYVDGVEVHNAKTKPREEQYNSTYRVVSVLTVLHQDWLNGKEYKCKVSNKALPAPIEKTISKAKGQPREPQVYTLPPSRDELTKNQVSLTCLVKGFYPSDIAVEWRTYKPYETNYKTTPPVLDSDGSFFLYSKLTVDKSRWQQGDIFVCDVMHEALHNHFTIKKLSLSPGK
B5: LLB1-3-25-2 (Fc fusion)
chain: B4 chain
notes: a difference, if any, lies outside the printed positions
B6: LLB1-3-4-1 (Fc fusion)
chain: B4 chain with T159N, D191N, F206Y
B7: LLB1-3-16 (Fc fusion)
chain: B4 chain with M198L
notes: also called Clone 1-3-16; LLB1-1-3-16
B8: LLB1-3-31-2 (Fc fusion)
chain: B4 chain with K210S
B9: LLB1-3-25-1 (Fc fusion)
chain: B4 chain with M198L
notes: as for B5
B10: LLB1-3 D380E (Fc fusion)
chain: B4 chain with T153S, T159N, D191N, F206Y
B11: LLB1-3-14-1 (Fc fusion)
chain: B4 chain with T153S, T159N, M198L, F206Y
B12: LLB1-3-10-1 (Fc fusion)
chain: B4 chain with T153S, T159N, D191N, M198L, F206Y
B13: 42.2.1.2 mono (Fc fusion)
chain 1: APEAAGGPSVFLFPPKPKDTLMISRTPEVTCVVVDVSHEDPEVKFNWYVDGVEVHNAKTKPREEQYNSTYRVVSVLTVLHQDWLNGKEYKCKVSNKALGAPIEKTISKAKGQPREPQVYTLPPSRDELTKNQVSLWCLVKGFYPSDIAVEWFYDDSKLTNYKTTPPVLDSDGSFFLYSKLTVDKSRWQQGNLFACEVMHEALHNHYTYKLLSLSPGK
chain 2: APEAAGGPSVFLFPPKPKDTLMISRTPEVTCVVVDVSHEDPEVKFNWYVDGVEVHNAKTKPREEQYNSTYRVVSVLTVLHQDWLNGKEYKCKVSNKALGAPIEKTISKAKGQPREPQVYTLPPSRDELTKNQVSLSCAVKGFYPSDIAVEWESNGQPENNYKTTPPVLDSDGSFFLVSKLTVDKSRWQQGNVFSCSVMHEALHNHYTQKSLSLSPGK
notes: knob+P329G+LALA with TfR site, hole+P329G+LALA without
B14: 42.2.3.1C mono (Fc fusion)
chain 1: B13 chain 1 with Y153G, D154T, D155N, S156K, L158E
chain 2: B13 chain 2
notes: as for B13
B15: 42.2.1.20 mono (Fc fusion)
chain 1: B13 chain 1 with Y153A, D155A, L158Q, T159R
chain 2: B13 chain 2
notes: as for B13
B16: 42.2.7.2 mono (Fc fusion)
chain 1: B13 chain 1 with Y153S, D155G, L158E, H203E, N204G
chain 2: B13 chain 2
notes: M428 kept here
B17: 42.2.3.1H mono (Fc fusion)
chain 1: B13 chain 1 with D154G, D155N, S156A, L158E
chain 2: B13 chain 2
notes: as for B13
B18: 42.2.3.5 mono (Fc fusion)
chain 1: B13 chain 1 with D154G, D155N, S156G, L158E
chain 2: B13 chain 2
notes: as for B13
B19: 42.2.19 mono (Fc fusion)
chain 1: B13 chain 1 with Q189P, G190R, N191G, S212G, L213E
chain 2: B13 chain 2
notes: as for B13
B20: 42.2.3.4 mono (Fc fusion)
chain 1: B13 chain 1 with Y153A, D154G, D155G, S156G, L158E
chain 2: B13 chain 2
notes: as for B13
B21: 42.2.3.3 mono (Fc fusion)
chain 1: B13 chain 1 with Y153T, D155N, S156Y, L158E
chain 2: B13 chain 2
notes: as for B13
B22: 42.2.5.2 mono (Fc fusion)
chain 1: B13 chain 1 with Y153S, D155G, L158E, Q189P, G190R, N191G, S212G, L213E
chain 2: B13 chain 2
notes: as for B13
B23: 42.2.5.4 mono (Fc fusion)
chain 1: B13 chain 1 with Y153S, D155G, L158E, G190Q, N191G, S212G, L213Y
chain 2: B13 chain 2
notes: as for B13
B24: LLB2-10-8.d25 (Fc fusion)
chain: B1 chain with V156Q
notes: Fc part only
B25: LLB2-10-8.d26 (Fc fusion)
chain: B1 chain with L157P
notes: Fc part only
B26: LLB2-10-8.d28 (Fc fusion)
chain: B1 chain with N152S, F155Y
notes: Fc part only
B27: LLB2-10-8.d29 (Fc fusion)
chain: B1 chain with N152S, V156Q
notes: Fc part only
B28: LLB2-10-8.d32 (Fc fusion)
chain: B1 chain with N152S, R154Q, V156E
notes: Fc part only
B29: LLB2-10-8.d31 (Fc fusion)
chain: B1 chain with R154Q, F155Y, V156Q
notes: Fc part only
B30: LLB2-10-8.d30 (Fc fusion)
chain: B1 chain with R154Q, V156E
notes: Fc part only
B31: LLB2-10-8.d27 (Fc fusion)
chain: B1 chain with V156Q, L157P
notes: Fc part only

In the first assay the target is T1, human CD98hc. In words: affinity as listed in study design table; method not given there.
For B1, binding was put at a Kd of 550 nM.
Same read-out and setting: the result for B2 reads 100 to 200 nM; that for B3, 550 nM.

A further assay concerns the target T2, human CD98hc. The assay can be described thus: SPR (Biacore); format not stated. The method, then:
A second round of affinity maturation using phage display was performed to increase the affinity of the LLB1 family to CD98hc (Table 11). The backbone of the library was the clone LLB1-3. Library LLB1-AM3 expands the library positions from the original clone using NHK or ARY. Library LLB1-AM4 expands the libraries and includes a mixture of residues that were found previously at those positions in the LLB1 family. The library was assembled using Kunkel mutagenesis and screened to human CD98hc. […] The format was anti-BACE1 Fabs having full effector function and in a bivalent format (i.e., no knob and hole mutations). Cell binding of the clones was also tested in HeLa cells for huCD98hc binding, CHO:cyCD98hc cells for cyno binding, and CHO cells as a negative control.
In turn, B4 displayed a dissociation constant Kd of 175 nM.
Same read-out and setting: the same measure for B5: 160 nM.
On the same count and under the same terms, the same measure for B6: 880 nM; for B7: 32 nM.
Same read-out and setting: the same measure for B8: 1200 nM; for B9: 42 nM.
The molecule B10 yielded a Kd of 1000 nM.
Consider B11, for which the Kd stood at 330 nM. Against the preceding molecule, the Kd is about 3-fold lower.
The molecule B12 yielded a Kd of 470 nM. The Kd values of the last two molecules are within 1.5-fold of each other.

Another assay has as its target T3, circularly permuted cyno TfR apical …. The assay can be described thus: method not named for this table (Biacore elsewhere).
Regarding B13, binding was characterised by a dissociation constant (Kd) of 7000 nM.
On the same count and under the same terms, the same measure for B14: 10000 nM; for B15: 7000 nM.
For the molecule B16, the Kd was determined as 10000 nM.
The same measure, in the same setting: the result for B17 reads 2000 nM.
On the same count and under the same terms, the same measure for B18: 1800 nM; for B19: 1100 nM; for B20: 4000 nM.
Molecule B21 registered a Kd of 8000 nM.
The same measure, in the same setting: the result for B22 reads 2000 nM.
Same read-out and setting: the same measure for B23: 6500 nM.

In another assay the target is T4, circularly permuted human TfR apical …. The assay is described as above.
B13 showed a Kd of 284 nM.
On the same count and under the same terms, the same measure for B14: 1000 nM; for B15: 440 nM.
In turn, B16 gave a Kd of 162 nM.
Same read-out and setting: the same measure for B17: 220 nM; for B18: 260 nM; for B19: 79 nM.
Still for that read-out and setting: the result for B20 reads 181 nM.
Still for that read-out and setting: the result for B21 reads 360 nM.
For B22, the Kd was 180 nM.
Still for that read-out and setting: the same measure for B23: 400 nM.

The target of a further assay is T5, human CD98hc. In words: SPR (Biacore). Here is the method:
Variants that bound with measurable affinity from this round of engineering are shown in Table A12 and the corresponding human binding affinity by surface plasmon resonance (SPR) using a Biacore™ machine are shown in Table 9B. Cell binding of the clones was also tested in HeLa cells for huCD98hc binding and CHO cells as a negative control.
Consider B24, for which binding was put at a Kd of 670 nM.
Consider B25, for which the binding result is listed as “no binding”.
With B26, the affinity, expressed as Kd, was 4200 nM. That is a single-digit micromolar value.
Still for that read-out and setting: the same measure for B27: 1300 nM.
Still for that read-out and setting: the result for B28 reads 3100 nM; that for B29, 460 nM.
Turning to B30, the Kd was 1000 nM.
Consider B31, for which the binding result was “no binding”.
